This is an account of results in patent US20210132068A1.

This assay deals with CD20 on CD20+ Daudi lymphoma cells (UniProt P11836). Nature of the assay: flow cytometry on CD20+ Daudi lymphoma cells, 30 minutes at 4° C.
Sequence of UniProt P11836 (P11836 whole entry): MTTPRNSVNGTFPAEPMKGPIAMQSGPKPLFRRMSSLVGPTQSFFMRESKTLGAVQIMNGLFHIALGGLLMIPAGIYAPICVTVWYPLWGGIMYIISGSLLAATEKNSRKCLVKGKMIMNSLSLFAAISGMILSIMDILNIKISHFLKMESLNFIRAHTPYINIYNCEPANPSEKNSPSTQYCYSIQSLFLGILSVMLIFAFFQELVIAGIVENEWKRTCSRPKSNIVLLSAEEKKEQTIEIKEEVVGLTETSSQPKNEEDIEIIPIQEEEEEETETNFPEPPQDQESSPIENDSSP

For the substance FITC-rituximab (antibody), the % positive cells was found to be 95%.
